# Results: PMC8752837, “Structural basis of BAK activation in mitochondrial apoptosis initiation” (Nature Communications, 2022)
# Where two headings read alike, the source gives them in different places.
# Legend:
# [1] = target: T1, MEAS-BAK-His6 (C-terminus truncated recombinant human BAK containing C-terminal 6x histidine tag) (human) (UniProt Q16611); test: SPR; MEAS-BAK-His6 captured (~500 RU) on Ni-NTA HisCap chip, peptides injected; 20 °C; 20 mM HEPES pH 8.0, 200 mM NaCl, 1 mM TCEP, 0.01% Tween20; 1:1 interaction model
# T1 sequence: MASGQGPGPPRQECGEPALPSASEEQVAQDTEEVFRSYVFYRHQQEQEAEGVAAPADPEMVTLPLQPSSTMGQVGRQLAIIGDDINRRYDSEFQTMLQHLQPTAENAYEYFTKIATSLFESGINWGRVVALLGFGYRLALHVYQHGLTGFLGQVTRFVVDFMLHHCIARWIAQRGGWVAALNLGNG
# [2] = target: T1, MEAS-BAK-His6 (C-terminus truncated recombinant human BAK containing C-terminal 6x histidine tag) (human); test: as above; remark: listed apart in the source
# GST-BAK (human) = test: fluorescence polarisation; competitive: displacement of 10 nM BID BH3 SAHB-F from 1 µM GST-BAK by peptides at 500-0.2 µM; 50 mM Tris-HCl pH 7.5, 50 mM KCl, 0.1 mg/mL BSA, 2 mM DTT, 0.005% Tween-20; 60 min at RT
# [3] = target: T2, Human BAK-∆TM-His6 (human); test: SPR; MEAS-BAK-His6 captured (~500 RU) on Ni2+-charged NTA HisCap chip, peptides injected; 20 °C; 20 mM HEPES pH 8.0, 200 mM NaCl, 1 mM TCEP, 0.01% Tween20; 1:1 interaction model
# T2 sequence (Q16611 whole entry, looked up): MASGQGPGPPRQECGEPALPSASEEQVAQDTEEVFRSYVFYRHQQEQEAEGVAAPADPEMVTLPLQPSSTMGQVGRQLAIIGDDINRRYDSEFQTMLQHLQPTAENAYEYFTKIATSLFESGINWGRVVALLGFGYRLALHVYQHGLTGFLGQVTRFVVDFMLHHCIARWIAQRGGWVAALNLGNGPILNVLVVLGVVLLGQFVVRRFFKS
# [4] = target: tevBAK (residues 22–186) (human) (UniProt Q16611); test: ITC; 250 or 500 µM BID BH3 peptide injected into 20 or 50 µM tevBAK; 25 °C; 20 mM HEPES, 100 mM NaCl, 1 mM TCEP; single site binding model
# [5] = target: T1, MEAS-BAK-His6 (C-terminus truncated recombinant human BAK containing C-terminal 6x histidine tag) (human)
Kd [2] [µM],koff [2] [s⁻¹],kon [2] [M⁻¹ s⁻¹],IC50 (GST-BAK (human)) [µM],Substance,further results
0.336,0.0241,71900,,W(3)W(5) BID BH3 peptide,kon [1]: 79100 M⁻¹ s⁻¹
,,,6.9,Y(4) BID BH3 peptide,

# Continued, substance first:
Substance,Kd [2] [µM],koff [2] [s⁻¹],kon [2] [M⁻¹ s⁻¹],IC50 (GST-BAK (human)) [µM],further results
Y(3) BID BH3 peptide,,,,6.2,
M(3)W(5) BID-like BH3 peptide,,,,,fold higher affinity than WT BID BH3 [3]: 30 fold; fold higher affinity than WT BID BH3 [4]: 30 fold
WT BID BH3 peptide,62.3,0.261,4190,,"Supplementary Table 1: liposome permeabilization EC50 (peptide dose against AUC, 50 nM BAK; data of Supplementary Figure 7c) [5]: 59 nM"
